Experimental data published in IntAct's records for PubMed 8922390.

Assays:
fak1_chick PTK2 = fak1_chick PTK2 (UniProt Q00944)
Chain of fak1_chick PTK2 (Q00944 whole entry): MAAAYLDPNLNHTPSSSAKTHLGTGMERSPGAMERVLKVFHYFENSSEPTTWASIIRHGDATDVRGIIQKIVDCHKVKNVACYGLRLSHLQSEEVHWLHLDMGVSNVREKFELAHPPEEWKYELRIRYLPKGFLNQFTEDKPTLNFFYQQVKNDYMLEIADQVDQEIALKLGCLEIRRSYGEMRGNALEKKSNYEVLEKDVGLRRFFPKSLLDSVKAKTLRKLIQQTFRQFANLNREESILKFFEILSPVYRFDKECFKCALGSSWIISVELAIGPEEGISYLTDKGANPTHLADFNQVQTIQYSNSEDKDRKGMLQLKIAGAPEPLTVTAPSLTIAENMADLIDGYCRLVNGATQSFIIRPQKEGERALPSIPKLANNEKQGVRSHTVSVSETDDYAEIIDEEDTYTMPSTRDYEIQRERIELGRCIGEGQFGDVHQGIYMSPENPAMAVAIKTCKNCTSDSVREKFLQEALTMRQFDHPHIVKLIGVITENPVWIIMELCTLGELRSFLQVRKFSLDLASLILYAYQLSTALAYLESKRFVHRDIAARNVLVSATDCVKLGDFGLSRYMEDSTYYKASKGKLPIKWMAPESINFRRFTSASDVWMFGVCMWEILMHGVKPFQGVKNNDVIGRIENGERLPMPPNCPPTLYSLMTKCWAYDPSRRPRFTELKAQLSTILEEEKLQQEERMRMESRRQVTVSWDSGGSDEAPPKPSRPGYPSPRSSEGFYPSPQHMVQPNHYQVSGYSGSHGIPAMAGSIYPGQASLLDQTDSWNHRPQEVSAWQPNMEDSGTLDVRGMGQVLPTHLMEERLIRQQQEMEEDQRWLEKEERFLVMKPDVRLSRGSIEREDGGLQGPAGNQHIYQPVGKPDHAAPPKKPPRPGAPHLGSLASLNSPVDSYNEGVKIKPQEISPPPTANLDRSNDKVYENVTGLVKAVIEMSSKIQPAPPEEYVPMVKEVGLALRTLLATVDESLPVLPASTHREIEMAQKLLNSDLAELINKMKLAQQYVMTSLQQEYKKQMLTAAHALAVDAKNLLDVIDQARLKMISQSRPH

Chain of Paxillin (Gallus gallus (Chicken)), P49024 D146N;R147Q (P49024 whole entry D146N/R147Q): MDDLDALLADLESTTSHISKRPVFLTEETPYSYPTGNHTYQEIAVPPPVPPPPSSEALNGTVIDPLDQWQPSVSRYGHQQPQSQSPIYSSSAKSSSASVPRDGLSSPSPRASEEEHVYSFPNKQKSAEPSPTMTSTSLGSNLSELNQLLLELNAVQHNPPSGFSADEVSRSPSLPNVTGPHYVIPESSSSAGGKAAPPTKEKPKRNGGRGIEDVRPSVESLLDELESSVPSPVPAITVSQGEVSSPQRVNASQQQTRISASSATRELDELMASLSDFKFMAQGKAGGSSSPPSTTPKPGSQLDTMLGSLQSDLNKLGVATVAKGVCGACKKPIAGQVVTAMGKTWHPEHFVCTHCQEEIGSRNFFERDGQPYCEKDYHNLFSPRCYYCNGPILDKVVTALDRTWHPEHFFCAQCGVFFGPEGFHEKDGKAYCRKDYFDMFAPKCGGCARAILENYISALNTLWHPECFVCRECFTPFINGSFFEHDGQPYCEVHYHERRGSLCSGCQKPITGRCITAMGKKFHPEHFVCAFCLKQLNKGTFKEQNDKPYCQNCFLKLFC
Chain of VCL, P12003-1 (P12003 other isoform, or with tags, fused parts or gaps): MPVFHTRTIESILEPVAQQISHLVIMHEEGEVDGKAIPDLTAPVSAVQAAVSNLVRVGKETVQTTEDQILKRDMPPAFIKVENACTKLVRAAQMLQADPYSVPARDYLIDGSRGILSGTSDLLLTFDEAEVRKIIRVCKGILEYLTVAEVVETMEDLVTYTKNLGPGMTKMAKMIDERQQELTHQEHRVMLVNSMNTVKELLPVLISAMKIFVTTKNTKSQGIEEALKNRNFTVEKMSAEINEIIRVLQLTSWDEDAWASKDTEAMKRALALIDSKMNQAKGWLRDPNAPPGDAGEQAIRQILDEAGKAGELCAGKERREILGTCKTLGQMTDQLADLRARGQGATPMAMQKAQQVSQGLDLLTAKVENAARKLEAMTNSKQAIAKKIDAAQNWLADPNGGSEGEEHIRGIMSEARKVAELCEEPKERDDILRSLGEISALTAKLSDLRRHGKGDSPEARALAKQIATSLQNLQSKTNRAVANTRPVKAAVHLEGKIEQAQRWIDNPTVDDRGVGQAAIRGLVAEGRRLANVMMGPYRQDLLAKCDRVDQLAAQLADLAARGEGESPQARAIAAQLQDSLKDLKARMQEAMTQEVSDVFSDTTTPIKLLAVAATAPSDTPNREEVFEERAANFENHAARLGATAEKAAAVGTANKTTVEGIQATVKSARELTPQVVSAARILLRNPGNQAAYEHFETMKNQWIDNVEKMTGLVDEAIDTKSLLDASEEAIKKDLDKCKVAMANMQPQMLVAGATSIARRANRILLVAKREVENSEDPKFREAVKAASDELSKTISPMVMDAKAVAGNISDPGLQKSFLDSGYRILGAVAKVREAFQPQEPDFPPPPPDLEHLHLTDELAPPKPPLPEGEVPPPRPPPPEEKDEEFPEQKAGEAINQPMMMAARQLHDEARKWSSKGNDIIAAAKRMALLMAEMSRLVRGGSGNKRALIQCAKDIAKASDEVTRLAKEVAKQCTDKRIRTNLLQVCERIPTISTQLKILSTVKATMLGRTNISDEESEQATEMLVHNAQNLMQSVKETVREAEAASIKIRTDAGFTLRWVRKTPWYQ
Chain of Paxillin (Gallus gallus (Chicken)), P49024 E151Q (P49024 whole entry E151Q): as the sequence (P49024 whole entry D146N/R147Q) above, with N146D, Q147R, E151Q counted along it

Substance: Paxillin (Gallus gallus (Chicken)), P49024 D146N;R147Q
- effect of a mutation on the interaction (fak1_chick PTK2): decreasing interaction
- effect of a mutation on the interaction (VCL, P12003-1): decreasing interaction

Substance: Paxillin (Gallus gallus (Chicken)), P49024 E151Q
- effect of a mutation on the interaction (VCL, P12003-1): decreasing interaction
